Assay [1] addresses T1, recombinant human PD-1 ECD-6His protein (Bio-Techne, item BP164049-1 mg) (human, UniProt Q15116 25-170).
T1 construct: extracellular domain; Bought protein; also called human PD-1-ED-6His; recombinant human PD-1 protein; not shown: hexahistidine tag
The assay can be described thus: SPR, mAb captured on protein A chip, PD-1 protein injected. (In general: Surface plasmon resonance follows binding to a sensor surface in real time, without labels.)

The target of another assay is T2, canine PD-1 ECD-6His (canine).
T2 construct: also called recombinant canine PD-1-ECD-6His protein; not shown: hexahistidine tag
T2 chain: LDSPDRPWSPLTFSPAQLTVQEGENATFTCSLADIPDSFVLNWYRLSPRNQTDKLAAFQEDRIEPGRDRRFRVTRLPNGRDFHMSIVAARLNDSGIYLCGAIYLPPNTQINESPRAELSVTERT
Briefly: SPR multi-cycle kinetics, mAb captured on protein A chip, monomeric PD-1 ECD-6His analyte.

T1 sequence (Q15116 25-170): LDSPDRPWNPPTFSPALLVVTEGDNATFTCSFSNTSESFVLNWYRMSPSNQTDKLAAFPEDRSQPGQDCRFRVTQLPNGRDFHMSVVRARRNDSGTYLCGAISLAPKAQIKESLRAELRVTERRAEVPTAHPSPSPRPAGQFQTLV
Method for canine PD-1 ECD-6His: SPR-based monomeric affinity assays were conducted as multi-cycle kinetic experiments. Around 100 RU of purified monoclonal antibody was captured on Fc2 of a series S protein A chip (Cytiva). […] At the end of each cycle, the chip surface was regenerated with a 120 s pulse of 10 mM Glycine pH 1.9 at 30 μL/min. The data were analysed using Biacore Insight package (Cytiva) by fitting to a global 1:1 binding model with kinetic analysis.

B1: PMX126 (antibody, V domains shown)
VH: EVQLVESGGDLVKPAGSLRLSCLASGFTFSSYSMSWVRQAPEKGLQSVAGINSDGDRTYYTDAVKGRFTISRDNAKSTVYLQMNSLRAEDTAMYYCVRGFSSFNAFGYWGQGTLVTVSS
VL: DIVMTQTPLSLSVSPGETASISCKASQSLLHSDGNTYLSWFRQKPGQSPHRLIYAVSHRHPGVPDRFSGSGSGTDFTLRISRVEADDAGLYYCGQVIQDPWTFGAGTKVELK
notes: Alexa Fluor 647-labelled in some assays
As for B1, the binding result in assay [1] is recorded as “no binding (tested: 900 nM)”.

B2: PMX152 (antibody, V domains shown)
VH: EVQLVESGGDLVKPGGSLRLSCVASGFTFSRYYMNWVRQAPGKGPQWVAYINNAGSDRNYVDAVKGRFTISRDNAKNTLYLQMNSLRAEDTAVYYCASEIRGVVVVGHLDYWGQGTLVTVSS
VL: SYVLTQLPSKSVTLNQPAHITCGGDNIGSKSVHWYQQKLGQAPVLIIYYDSIRPTGIPERFSGATSGNTATLTISGALAEDEADYYCQVWDSSAKAWVFGEGTQLTVL
notes: also called PM152
With B2, the binding result with canine PD-1 ECD-6His is on record as “binds”.

B3: PMX127 (antibody, V domains shown)
VH: EVQLVESGGDLVKPGGSLRLSCVASGFSFSRYHMSWVRQAPGKGLQWVAYIVSGGISTSYADAVKGRFTISRDNAKNTLFLQMNSLRAEDTAVYYCATYGSYFFDTWGQGTLVTVSS
VL: DIVMTQTPLSLSVSPGETASIFCKASQSLLHSDGKSYLNWFRQKPGQSPQRLIYRVSNRDPGVPDRFSGSGSGTDFTLRISRVEADDTGLYYCGQVIQDPTFGAGTKVELK
notes: Alexa Fluor 647-labelled in some assays; also called PM127
As for B3, the binding result in assay [1] is listed as “no binding (tested: 900 nM)”.

(Values after patent publication US20240254231A1 (PETMEDIX, published 2024).)
